The nanobody polyreactivity screen of Harvey et al. (2022)

Assay: yeast display, Sf9 membrane polyspecificity reagent, FACS + sequencing; frameworks hold sequencing errors
In short: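 After 36–48 hours of galactose induction, yeast (Saccharomyces cerevisiae BJ5465) displaying a synthetic nanobody library were stained at 4 °C for 1 hour with 10% biotinylated, detergent-solubilized Sf9 membrane reagent. Streptavidin microbeads enriched the stained cells before FACS sorting into low and high (top ~1%) gates on anti-HA and streptavidin fluorescence. Each clone's polyreactivity label reflects its gate of origin.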

| Sequence | polyreactivity (PSR sort gate) |
| --- | --- |
| QVQLVESGGGLVQAGGSLRLTCAASGRIIKLYAMGWYRQAPGKETEFVAAITWSGGRTYYADSVKGRFTISRDNAKNTVYLQMNSLTPEDTAVYSCAAYDTYDWYDYWGQGTQVTVSS | high polyreactivity |
| QVQLVESGGGLVQAGGSLRLTCAASGRILGYYAMGWYRPAPGKERELVAAITYSGGSTYYADSVKGRFSISRDNAKNTVYLQMNILKPEDTAVYYCAADKLLLGLYGSTWNDYWGQGTQVTVSS | low polyreactivity |
| QVQLVESGGGLVQAGGSLRLTCAASGRTFASNDMGWYRQAPGKEMELVADINNGARTYYADSVKGRFTISRDNAKNTVYLQMNSLKPEDTAVYYCAARRYGKQVRLYGYWGQGTQVTVSS | high polyreactivity |
| QVQLVESGGGLVQAGGSLRLTCAASGRTFGPYAMGWYRPAPGKERELVAAIRYIDDSTFYADSVKGRFTISRDNAKNTVYLQMNSLKPEDTAVYYCAAQRRVVGRHGLSLIRYDYWGQGTQVTVSS | low polyreactivity |
| QVQLVESGGGLVQAGGSLRLTCAASGRTFKSYTMGWYRQAPGKEREFVAAISSRGGNTYYADSVKGRFTISRDNAKNTVYLQMNSLKPEDTAVYYCAAESSYWSFPTYDYWGQGTQVTVSS | high polyreactivity |
| QVQLVESGGGLVQAGGSLRLTCAASGRTFPLNVMGWYRQAPGKERELVAAITVSAGSTYYADSVKGRFTISRDNAKNTVYLQMNSLKPEDTAVYYCAKATSSFYHYRYDYWGQGTQVTVSS | low polyreactivity |
| QVQLVESGGGLVQAGGSLRLTCAASGRTFQYYSMGWYRQAPGKERELVAAISQDGGSTYYADSVKGRFTISRDNAKNTVYLQMNSLKPEDTAVYYCAARVDEYAYYALDDYWGQGTQVTVSS | low polyreactivity |
| QVQLVESGGGLVQAGGSLRLTCAASGRTFSTYVMGWYRQAPGKEREFVAAISTGGGSTYYADSVKGRFTISRDNAKNTVYLQMNSLKPEDTAVYYCAAKRKIRGYGPYEFWGQGTQVTVSS | high polyreactivity |
| QVQLVESGGGLVQAGGSLRLTCAASGRTFVNYAMGWYRQAPGKERELVAAISTSGGSTYYADSVKGRFTISRDNAKNTVYLQMNSLKPEDTAVYYCNKVRYLPDNLRQVTFDYWGQGTQVTVSS | low polyreactivity |
| QVQLVESGGGLVQAGGSLRLTCAASGRTFWYYAMGWYRQAPGKERELVAAISRNGGSTYYEDSVKGRFTISRDNAKNTVYLQMNSLKPEDTAVYYCAATLLRDYDYWGQGTQVTVSS | high polyreactivity |
| QVQLVESGGGLVQAGGSLRLTCAASGRTFYYYAMGWYRQAPGKESELVAAINTRGVSTYYADSVKGRFTISRDNAKNTVYLQMNSLKPEDTAVYYCNKGFSYGRDYWGQGTQVTVSS | high polyreactivity |
| QVQLVESGGGLVQAGGSLRLTCAASGRTLGGYTMGWSRQAPGKERELVAAITTGGSTNYADSVKGRFTISRDNAKNTVYLQMNSLKPEDTAVYYCATELVFDKRYWYDYWGQGTQVTVSS | low polyreactivity |
| QVQLVESGGGLVQAGGSLRLTCAASGRTSNGYAMGWYRQAPGNERELVAAYADSVKGRFTISRDNAKNTVYLQMNSLKPEETAVYYCNADYDPVSRVGYVYWAYYYWGQGTQVTVSS | low polyreactivity |
| QVQLVESGGGLVQAGGSLRLTCAASGSIFEVNAMGWYRQAPGKERELVAGISNADSTNYADSVKGRFTISRDNAKNTVYLQMNSLKPEDTAVYYCATDLDRDLPKDLLGPEYDYWGQGTQVTVSS | low polyreactivity |
| QVQLVESGGGLVQAGGSLRLTCAASGSIFGWYVMGWYIPAPGKERELVAAISSVGSTYYADSVKGRFTISRDNAKNTVYLQMKSLKREDTAVYYCAKLRYPYLFWDDSEYWGQGTQVTVSS | low polyreactivity |
| QVQLVESGGGLVQAGGSLRLTCAASGSIFLSYAMGWYRQPPGKDRELVAAISGGVNTYYADSVKGSFTISRDNAKNTVYLQMNSLKPEDTAVYYCYAVPHIYAEGTAYNYWGQGTQVTVSS | low polyreactivity |

| Sequence | polyreactivity (PSR sort gate) |
| --- | --- |
| QVQLVESGGGLVQAGGSLRLTCAASGSIFPFYAKGWYRQATGKERELVAAISDSGGDTYYADSVKGRFTISRDNAKNTVYLQMNSLKPEDTAVYYCAADCFYNSFNYWGQGTQVTVSS | low polyreactivity |
| QVQLVESGGGLVQAGGSLRLTCAASGSIFTTNAKGWYRPAPGTERELVASITWSGGSTYADSVKGRFTISRDNAKYTVYLQMNILKPEDTAVYYGATDPFYPVPPEYEYWGQGTQVTVSS | low polyreactivity |
| QVQLVESGGGLVQAGGSLRLTCAASGSIFWDNAMGWYRQAPGKERALFAAITSSGGSTHYADSVKGRFTISRDNAKNTVYLQMYSLKPEDTAVYYCAARRYYGVYYAFLYWGQGTQVTVSS | high polyreactivity |
| QVQLVESGGGLVQAGGSLRLTCAASGSIFWGNAMGWYRQAPGKERELVATISWSAGSTYYADSVKGRFTISRDNAKNTVYLQMNSLKPEDTGVYYCATDFRHSTLYYYWGQRTQVTVSS | low polyreactivity |
| QVQLVESGGGLVQAGGSLRLTCAASGSIFWPNAMGWYRPAPGKERELVAAISWGTGSTYYADSVKGRFTISRDNAKNTVYLQMNSLKPEDTAVYYCAADGAYLDPYYDYWGQGTQVTVSS | low polyreactivity |
| QVQLVESGGGLVQAGGSLRLTCAASGSIFWRNTMGWYRQAPGKERELVAAIRNVGSTYYADSVKGRFTISRDNAKNTVYLQMNSLKPEDTAVYYCAVVYPARGSGNDSWGQGSQVTVSS | high polyreactivity |
| QVQLVESGGGLVQAGGSLRLTCAASGSIFWWYGVGWYRQAPGKERELVADITSGGGTYYADSVKGRFTISRDNAKNTVYLQMNSLKPEDTAVYYCAADDRAYRFDYYFDYWGQGTQVTVSS | low polyreactivity |
| QVQLVESGGGLVQAGGSLRLTCAASGSIFYYNAMGWYRQAPGKERELVAAISSDGSTYYADSVKGRFTISRDNAKNTVYLQMNSLKPEDTAVYYSAAATLTWSRWGSYYEYDYWGQGTQVTVSS | low polyreactivity |
| QVQLVESGGGLVQAGGSLRLTCAASGSNFQYYAMGWYRQAPGKERELVAAISSGDTTNYADSVKGRFTISRDNAKNTVYLQMNSLKPEDTAVYYCNAEGGWYDWDDYWGQGTQVTVSS | low polyreactivity |
| QVQLVESGGGLVQAGGSLRLTCAASGSNFWSYDMGWYRQAPGKERELVATITSGDSTYYADSVKGRFTISRDNAKNTVYLQMYSLKPEDTAVYYCAAGTYYRRPYWHRDYDYWGQGTQVTVSS | low polyreactivity |
| QVQLVESGGGLVQAGGSLRLTCAASGSTFGSYAMGRYRQAPGKERELVAVAISWSGGNTYYADSVKGRFTNSRDNAKNTFYLQMNSLKPEDTAVYYFAAYGTTGVYRGPGYDYWGQGTQVTVSS | low polyreactivity |
| QVQLVESGGGLVQAGGSLRLTCAASGSTFHLYAMGWYRQAPGKEREFVAAIRGRGGNTYADSVKGRFTISRDNAKNTVYLQMNSLKPEDTAVNYCAAPLLRDLRSPYSYNYWGQGTQVTVSS | low polyreactivity |
| QVQLVESGGGLVQAGGSLRLTCAASGSTFPSYAMGWYRQAPGKERELVAAINSGGGTNYADSVKGRFTISRDNAKNTVYLHMNSLKPEDTAVYYCAKSRYDYTKTEGGYWGQGSQVTVSS | low polyreactivity |
| QVQLVESGGGLVQAGGSLRLTCAASGSTFPYNAMGWYRPATGKERELVASITGGRKKYADSVKGRFTISRDNEKNTVYLQMNRLKREDTAVYYCAADYYSLWIRRDSNYWGQGTQVTVSS | low polyreactivity |
| QVQLVESGGGLVQAGGSLRLTCAASGSTFSGYAMGWYRQAPGKERELVATISGGGSTYYADSVKGRFTISRDNAKNTVYLQMNILKPEDTAVYYCNAQGYGIFTSSLDYWGQGTQVTVSS | low polyreactivity |
| QVQLVESGGGLVQAGGSLRLTCAASGSTFSVYDMGWYRKAPGKERELVAAIDVTGGSTYYADSVKGRFTISRDNAKNTVSLQMNSLKPEDTAVYYCNAGKCYSLYGMYYWGQGTQVTVSS | low polyreactivity |
